The values below come from the Human Domainome abundance scans (Beltran et al. 2025).

The labels stand for the following.
B1: Tyrosine-protein kinase BTK, residues 215 to 273; numbered along this chain, Q06187 (parent)
chain: ELKKVVALYDYMPMNANDLQLRKGDEYFILEESNLPWWRARDKNGQEGYIPSNYVTEAE
B2: Tripartite motif-containing protein 49C, residues 87 to 133; numbered along this chain, P0CI26 (parent)
chain: SSEEQMCGTHRETKKIFCEVDRSLLCLLCSSSQEHRYHRHRPIEWAA

± gives the uncertainty stated by the source.

In the first data set the parent is B1. The data set can be described thus: abundance fitness (aPCA) (normalised: wild type 0, dead -1); higher = more abundant; growth selection in yeast, the domain comes from the species named. The conditions noted are these: Homo sapiens.
Take K23P: the abundance fitness is -0.371 ± 0.05.

On to K23L, for which the abundance fitness is -0.181 ± 0.033.

K23Q: the abundance fitness was -0.077 ± 0.046.

N17Y: the abundance fitness was -0.088 ± 0.056.

As to V6L, the abundance fitness was -0.052 ± 0.027.

With V6C, the abundance fitness was -0.103 ± 0.03.

On to V6P, for which the abundance fitness was -0.796 ± 0.049.

As for V6W, the abundance fitness was -0.067 ± 0.042.

Regarding V6T, the abundance fitness was -0.017 ± 0.029.

Regarding V6G, the abundance fitness is -0.636 ± 0.03.

With E57H, the abundance fitness was determined as 0.023 ± 0.071.

For the variant E57L, the abundance fitness was -0.057 ± 0.037.

On to E57D, for which the abundance fitness was -0.072 ± 0.074.

For E57Q, the abundance fitness is -0.024 ± 0.043.

E57M: the abundance fitness was -0.022 ± 0.056.

As to E59Q, the abundance fitness is -0.015 ± 0.1.

Consider S52A, for which the abundance fitness is -0.009 ± 0.047.

For the variant S52W, the abundance fitness is -0.03 ± 0.049.

Consider G45F, for which the abundance fitness is -0.173 ± 0.073.

Turning to F28W, the abundance fitness was 0.032 ± 0.049.

Regarding F28N, the abundance fitness was -0.077 ± 0.069.

For the variant F28R, the abundance fitness is -0.012 ± 0.047.

As to W38M, the abundance fitness came out at 0.017 ± 0.037.

As to W38G, the abundance fitness was -0.22 ± 0.043.

W38Q: the abundance fitness is -0.019 ± 0.05.

With W38C, the abundance fitness was -0.027 ± 0.048.

Turning to Y11L, the abundance fitness was -0.094 ± 0.031.

Y11N: the abundance fitness was -0.383 ± 0.075.

For the variant Y11Q, the abundance fitness was -0.316 ± 0.065.

Regarding Y11H, the abundance fitness is -0.155 ± 0.07.

Take R41P: the abundance fitness was -0.976 ± 0.12.

In the case of R41W, the abundance fitness is -0.19 ± 0.047.

Consider R41A, for which the abundance fitness is -0.111 ± 0.041.

The next data set covers variants of B2. The description is as above. To be noted: Homo sapiens.
As for S31V, the abundance fitness is -0.122 ± 0.089.

Take S31T: the abundance fitness was -0.328 ± 0.13.

Turning to S31I, the abundance fitness is -0.065 ± 0.15.

Consider Y37R, for which the abundance fitness was -0.109 ± 0.075.

For the variant Y37S, the abundance fitness stood at 0.171 ± 0.071.

Regarding Y37K, the abundance fitness turned out to be 0.058 ± 0.1.

As for Y37W, the abundance fitness was -0.218 ± 0.12.

Turning to Y37N, the abundance fitness worked out at 0.226 ± 0.083.

With Y37C, the abundance fitness was -0.032 ± 0.09.

Take R41P: the abundance fitness was -0.364 ± 0.37.

Turning to H35E, the abundance fitness was -0.997 ± 0.26.

Consider H35V, for which the abundance fitness is -0.892 ± 0.12.

Turning to R22Y, the abundance fitness is -0.47 ± 0.29.

Take R22A: the abundance fitness is -0.267 ± 0.11.

Take R22V: the abundance fitness was -0.575 ± 0.098.

On to G8K, for which the abundance fitness was -0.02 ± 0.11.

With G8D, the abundance fitness is -0.022 ± 0.11.

In the case of E3Y, the abundance fitness was -0.592 ± 0.25.

For E4R, the abundance fitness was -0.252 ± 0.081.

Regarding E4C, the abundance fitness is -0.591 ± 0.21.

In the case of S2E, the abundance fitness was -0.222 ± 0.14.

S2P: the abundance fitness is -0.042 ± 0.22.

On to S2F, for which the abundance fitness amounted to 0.205 ± 0.14.

Consider R11K, for which the abundance fitness stood at 0.073 ± 0.12.

With R11C, the abundance fitness is -0.008 ± 0.12.

Take R11V: the abundance fitness is -0.502 ± 0.11.

As to A47R, the abundance fitness was found to be 0.04 ± 0.14.

As to S32Q, the abundance fitness was -0.116 ± 0.11.

For S32E, the abundance fitness is -0.364 ± 0.15.

As to S32N, the abundance fitness was -0.134 ± 0.25.

Turning to D21N, the abundance fitness was -0.01 ± 0.13.

On to D21W, for which the abundance fitness was -0.198 ± 0.098.

As for E34S, the abundance fitness was -0.281 ± 0.1.

Consider E34P, for which the abundance fitness is -0.834 ± 0.15.

Consider E34K, for which the abundance fitness is -0.246 ± 0.14.

For the variant E34M, the abundance fitness was -0.496 ± 0.12.

Consider E19A, for which the abundance fitness is -0.498 ± 0.11.

E19T: the abundance fitness was -0.512 ± 0.16.

As to E19G, the abundance fitness is -0.619 ± 0.098.

In the case of E19Y, the abundance fitness was -0.737 ± 0.2.

Turning to S1E, the abundance fitness is -0.003 ± 0.21.

For S1T, the abundance fitness is -0.496 ± 0.19.

For the variant R39H, the abundance fitness was -0.131 ± 0.15.

As to R39W, the abundance fitness is -0.314 ± 0.084.

R39L: the abundance fitness is -0.172 ± 0.085.

For the variant R36E, the abundance fitness was -0.308 ± 0.11.

In the case of R36Y, the abundance fitness is -0.701 ± 0.18.

For the variant R36N, the abundance fitness was -0.028 ± 0.11.

Regarding A46V, the abundance fitness was -0.203 ± 0.085.

Consider A46D, for which the abundance fitness worked out at 0.09 ± 0.1.

For the variant A46E, the abundance fitness was -0.076 ± 0.11.

Regarding A46S, the abundance fitness turned out to be 0.056 ± 0.089.

As for H10G, the abundance fitness is -0.671 ± 0.084.

As to H10L, the abundance fitness is -0.256 ± 0.1.

For the variant H10T, the abundance fitness was -0.772 ± 0.16.

For the variant L25Q, the abundance fitness was -0.388 ± 0.14.

Turning to L25R, the abundance fitness is -0.45 ± 0.11.

In the case of L25S, the abundance fitness was -0.394 ± 0.1.

Take L25H: the abundance fitness is -0.081 ± 0.22.

As to F17N, the abundance fitness is -0.675 ± 0.18.

Take F17I: the abundance fitness is -0.464 ± 0.15.

Take F17D: the abundance fitness is -0.726 ± 0.14.

F17T: the abundance fitness was -0.443 ± 0.12.

Take L24D: the abundance fitness is -0.294 ± 0.14.

L24H: the abundance fitness is -0.298 ± 0.22.

Consider L24G, for which the abundance fitness was -0.253 ± 0.083.

L24Y: the abundance fitness is -0.085 ± 0.13.

L24R: the abundance fitness is -0.213 ± 0.098.

Take H40D: the abundance fitness is -0.083 ± 0.19.

Take H40L: the abundance fitness was -0.551 ± 0.09.

For the variant H40R, the abundance fitness is -0.563 ± 0.081.

Consider T9K, for which the abundance fitness came out at 0.185 ± 0.097.

For T9N, the abundance fitness is -0.417 ± 0.2.

Turning to T9I, the abundance fitness is -0.074 ± 0.12.

On to L27G, for which the abundance fitness stood at 0.145 ± 0.068.

As for L27E, the abundance fitness worked out at 0.437 ± 0.08.

As to I16E, the abundance fitness was -0.444 ± 0.13.

For the variant I16Q, the abundance fitness is -0.468 ± 0.14.

For I16A, the abundance fitness is -0.703 ± 0.12.

As to T13F, the abundance fitness was -0.232 ± 0.13.

On to T13R, for which the abundance fitness is -0.128 ± 0.075.

Turning to T13W, the abundance fitness was -0.436 ± 0.1.

Consider T13K, for which the abundance fitness is -0.224 ± 0.15.

As to T13E, the abundance fitness was -0.028 ± 0.14.

On to C7Q, for which the abundance fitness was -0.832 ± 0.18.

In the case of C7R, the abundance fitness is -0.513 ± 0.12.

For C7W, the abundance fitness was -0.499 ± 0.27.

Take C7V: the abundance fitness was -0.722 ± 0.15.

On to C7Y, for which the abundance fitness is -0.788 ± 0.11.

For M6R, the abundance fitness was -0.338 ± 0.092.

On to M6L, for which the abundance fitness is -0.13 ± 0.1.

As for M6C, the abundance fitness is -0.568 ± 0.17.

Turning to M6A, the abundance fitness was -0.575 ± 0.11.

W45G: the abundance fitness is 0.236 ± 0.078.

For W45Y, the abundance fitness is 0.256 ± 0.095.

For the variant W45M, the abundance fitness turned out to be 0.255 ± 0.12.

As for C29M, the abundance fitness is -0.935 ± 0.18.

For C29W, the abundance fitness was -0.815 ± 0.17.

As to K14W, the abundance fitness is -0.431 ± 0.11.

K15C: the abundance fitness is -0.382 ± 0.15.

In the case of K15D, the abundance fitness is -0.571 ± 0.14.

As to K15G, the abundance fitness is -0.265 ± 0.084.

For Q33G, the abundance fitness was -0.151 ± 0.082.

As to Q33L, the abundance fitness is -0.012 ± 0.094.

Consider Q33W, for which the abundance fitness is -0.352 ± 0.096.

Take I43Y: the abundance fitness was determined as 0.335 ± 0.29.

Take I43T: the abundance fitness is -0.54 ± 0.4.

Turning to I43F, the abundance fitness was 0.594 ± 0.35.

Regarding I43G, the abundance fitness was -0.215 ± 0.15.

For E12G, the abundance fitness is -0.01 ± 0.076.

Turning to C18K, the abundance fitness is -0.381 ± 0.2.

With C18A, the abundance fitness was -0.907 ± 0.15.

Turning to L28Y, the abundance fitness turned out to be 0.056 ± 0.11.

In the case of L28V, the abundance fitness was determined as 0.186 ± 0.094.

On to V20A, for which the abundance fitness is 0.141 ± 0.11.

V20H: the abundance fitness was -0.033 ± 0.08.

In the case of S30H, the abundance fitness is -0.528 ± 0.25.

For the variant S30D, the abundance fitness is -0.288 ± 0.18.

Regarding C26H, the abundance fitness is -0.962 ± 0.45.

For C26L, the abundance fitness was -0.787 ± 0.15.

As to C26G, the abundance fitness was -0.734 ± 0.09.

Consider S23C, for which the abundance fitness is -0.055 ± 0.13.

For the variant S23M, the abundance fitness is -0.062 ± 0.14.

As for P42H, the abundance fitness is -0.264 ± 0.082.

With P42W, the abundance fitness was -0.671 ± 0.1.

Q5E: the abundance fitness was -0.609 ± 0.13.

As for Q5G, the abundance fitness is -0.244 ± 0.081.

Consider Q5T, for which the abundance fitness was -0.345 ± 0.12.

Consider Q5C, for which the abundance fitness was -0.643 ± 0.21.

For the variant Q5V, the abundance fitness was -0.009 ± 0.096.

In the case of Q5W, the abundance fitness is -0.465 ± 0.12.

For H38I, the abundance fitness is -0.892 ± 0.26.

For H38N, the abundance fitness was -0.781 ± 0.25.

For the variant H38Y, the abundance fitness is -0.711 ± 0.14.
